According to patent US11426447B2, “Neuregulin for the treatment of tumors of the nervous system” (LEIBNIZ-INSTITUT FUR …, priority 2016, dated 2022):

How the values were obtained:
[1] = test system: sciatic nerve crush injury; assay: Single-frame motion analysis (foot-base angle): functional recovery after sciatic nerve crush; assay type: in vivo, mice
Description: (§1) Unilateral injuries of sciatic nerves were accomplished according to a previously described method (Bauder and Ferguson, 2012). In brief, 8 to 10 week old mice were anesthetized using 2% isoflurane in 100% oxygen. Fur was then removed from one hind limb. After an appropriate incision of the skin, the gluteal musculature was separated in order to reveal the right sciatic nerve. Using haemostatic forceps (Ultra Fine Haemostat; #13021-12; tip width 0.6 mm; Fine Science Tools; Germany), the nerve was crushed once by the application of a defined pressure for 20 s. The locking mechanism of the haemostatic forceps with a series of interlocking teeth ensured reproducibility and standardization of crush injury. Finally, both the gluteal musculature and skin incision were sutured using appropriate surgical suture material.
To evaluate locomotor function, mice were accustomed, in 3-4 trials, to beam-walking 1 week prior to surgery. In this test, the animal walks voluntarily from one end of a horizontal beam (length 1000 mm, width 40 mm) towards its home cage located at the other end of the beam. For all mice, a rear view of one walking trial was captured once prior to surgery and at different time-points after surgery with a Video camera and stored on a personal computer in Audio Video Interleaved (AVI) format. The video sequences were examined using VirtualDub 1.6.19 software.
It was tested whether rhNRG1 protein replacement can improve functional recovery of mice over a time period of 8 weeks after sciatic nerve crush.

[2] = test system: crush injury-induced schwannoma; assay: In situ tumour size quantification: sciatic nerve diameter after crush injury-induced schwannoma formation; assay type: in vivo, Nf2flox;P0-Cre;Nefh-Cre mutant mice; settings: KO mice
Description: as §1
An EGF domain containing 7 kDa protein of recombinant human Neuregulin 1 (“rhNRG1”) was purchased from Reprokine (#RKQ02297; USA). Protein was firstly resolved in ddH2O and further diluted in phosphate-buffered saline (PBS) to reach target concentrations. […]
Sciatic nerve crush injury was conducted on WT mice and Nf2flox;P0-Cre;Nefh-Cre mutant mice as described above. […] Moreover by determining the myelin thickness, structural integrity of non-crushed, intact nerves was assessed (FIG. 7).

[3] = test system: tumorlets (neoplastic Schwann cell proliferation areas); assay: Quantification of tumorlets in Nf2flox;Postn-Cre mice; assay type: in vivo; settings: 20 μg rhNRG1 per kg bodyweight ip for three months, vs control animals
Description: PFA-fixed tissue blocks derived from rhNRG1 and control treated animals containing lower spinal cord, lumbar dorsal root ganglions (DRG) as well as distal nerve proportions were cut in 4 planes per animal. Photographs were subsequently scanned and analyzed using the NanoZoomer Digital Pathology Software. The total area occupied by peripheral nerve tissue and dorsal root ganglion (DRG) tissue in mm^2 was quantified separately. Likewise, neoplastic tissue regions were identified and quantified separately for peripheral nerves and DRG areas. All quantitative analyses of tumorlets in Nf2flox;Postn-Cre mice were performed in blinded manner.
The in vivo results on the efficacy of rhNRG1 on schwannoma growth was tested as described in Example 1 however in a another animal model of schwannoma disease, the well-established Nf2flox;Postn-Cre mouse line, wherein a conditional Nf2 gene deletion is facilitated by the Periostin-Cre driver line (Nf2flox;Postn-Cre).
In this model all animals spontaneously develop spinal, peripheral and cranial nerve schwannomas over time (Gehlhausen et al., 2015). 4-month-old mutant Nf2flox;Postn-Cre animals as well as their corresponding wildtype littermates were either treated with saline control injections or intraperitoneal rhNRG1 administration for three months (FIG. 8A). […]

B1: rhNRG1: EGF domain containing 7 kDa protein of recombinant human Neuregulin 1, purchased from Reprokine (#RKQ02297) (protein, listed as Homo sapiens)
chain: SHLVKCAEKEKTFCVNGGECFMVKDLSNPSRYLCKCPNEFTGDRCQNYVMASFYKHLGIEF
functional recovery after sciatic nerve crush (SFMA) ([1]; Nf2flox;P0-Cre;Nefh-Cre mutant mice, intraperitoneal injections every other day, vs no treatment or saline): significantly improved recovery | functional regeneration after sciatic nerve crush (SFMA) ([1]; Nf2flox;P0-Cre;Nefh-Cre mutant mice, local administration with absorbable collagen sponges, vs control treatment): able to increase functional regeneration | functional recovery after sciatic nerve crush (SFMA) ([1]; wildtype animals, systemic rhNRG1, 8 weeks): does not enhance regeneration | sciatic nerve diameter 3 months after crush injury ([2]; local collagen sponges soaked in 0.2 mg/ml rhNRG1, KO vehicle ACS about 1.8 mm, WT about 1 mm): about 1.4 mm | sciatic nerve diameter 3 months after crush injury ([2]; systemic (ip) rhNRG1, KO vehicle about 2 mm, WT vehicle about 1 mm): about 1.5 mm | tumorlet fraction (area occupied by tumorlets relative to total nerve tissue area) [3]: significant reduction
